This is an account of results in publication PMC6007404 (Nucleic Acids Research, 2018).

Data set [1] concerns the target T1, MotA (Enterobacteria phage T4, UniProt P22915 1-211).
T1 sequence: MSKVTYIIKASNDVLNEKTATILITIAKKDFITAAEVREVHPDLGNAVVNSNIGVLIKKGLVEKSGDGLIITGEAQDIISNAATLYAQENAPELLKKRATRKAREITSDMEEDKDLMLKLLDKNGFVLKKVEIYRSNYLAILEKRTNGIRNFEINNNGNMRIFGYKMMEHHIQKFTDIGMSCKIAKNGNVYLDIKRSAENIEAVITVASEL
Nature of the data set: EMSA; steep curve, value uncertain; EMSA: 0.01 pmol 32P-DNA, 1.7 pmol MotA, native 12% PAGE in 1x TBE at 4 C, other conditions as in ref 14; SPR: biotin-DNA on neutravidin chip, buffer as in ref 2. A general note: In EMSA bound probe runs differently from free probe, usually more slowly.

Data set [2] deals with the molecule itself. Nature of the data set: crystal structure; MotA^linker/CTD mixed with 22 bp MotA box DNA at 1.15:1 DNA:protein; 23% PEG 8000, 0.12 M sodium acetate, 0.1 M sodium cacodylate pH 6.5, 3% glycerol; space group P6_(1), 2.96 Å; four protein copies and two DNA duplexes in the asymmetric unit.
Data set [3] concerns the target T1, MotA. Nature of the data set: competition; EMSA vs labeled N6; EMSA: 0.01 pmol 32P-DNA, 1.7 pmol MotA, native 12% PAGE in 1x TBE at 4 C, other conditions as in ref 14; SPR: biotin-DNA on neutravidin chip, buffer as in ref 2.
The target in data set [4] is T1, MotA. Nature of the data set: EMSA; EMSA: 0.01 pmol 32P-DNA, 1.7 pmol MotA, native 12% PAGE in 1x TBE at 4 C, other conditions as in ref 14; SPR: biotin-DNA on neutravidin chip, buffer as in ref 2.
In the next data set the target is T2, MotAlinker/CTD (Enterobacteria phage T4, UniProt P22915 93-211).
T2 sequence: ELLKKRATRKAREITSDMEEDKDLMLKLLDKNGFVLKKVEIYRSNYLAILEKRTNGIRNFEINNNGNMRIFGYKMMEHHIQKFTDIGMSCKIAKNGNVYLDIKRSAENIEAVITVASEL
Nature of the data set: X-ray crystallography; cognate complexes A and C; further non-cognate copies B and D on the opposite face; 2.96 A; EMSA: 0.01 pmol 32P-DNA, 1.7 pmol MotA, native 12% PAGE in 1x TBE at 4 C, other conditions as in ref 14; SPR: biotin-DNA on neutravidin chip, buffer as in ref 2.

The term Kd denotes a measure of binding affinity in units of concentration.

B1: EMSA 19-mer GHMe/unmod (dsDNA)
DNA 1: AATTATTTGCTTTAGATTA
DNA 2: TAATCTAAAGCAAATAATT
modifications: beta-D-glucosyl-5-hydroxymethyl-dC at top C10
For the molecule B1, the Kd with MotA [1] is approximately 20 nM.

B2: MotA^linker/CTD (C-terminal domain and linker region of MotA, amino acids 93-211) (domain or fragment, bacteriophage T4, UniProt P22915 93-211, looked up)
chain: ELLKKRATRKAREITSDMEEDKDLMLKLLDKNGFVLKKVEIYRSNYLAILEKRTNGIRNFEINNNGNMRIFGYKMMEHHIQKFTDIGMSCKIAKNGNVYLDIKRSAENIEAVITVASEL
Take B2: the binding result in data set [2] is “binds”.

B3: EMSA mutant competitor (dsDNA)
DNA 1: AATTATTATACTTAGATTA
DNA 2: TAATCTAAGTATAATAATT
Turning to B3, the binding result in the data set with MotA [3] is listed as “no binding”.

B4: EMSA 19-mer unmodified (dsDNA)
DNA 1: AATTATTTGCTTTAGATTA
DNA 2: TAATCTAAAGCAAATAATT
In the data set with MotA [4], B4 returned a Kd of approximately 140 nM.

B5: 22-mer MotA box DNA (crystal) (dsDNA)
DNA 1: GAAGCTTTGCTTAATAATCCAC
DNA 2: GTGGATTATTAAGCAAAGCTTC
For the molecule B5, the binding result in the data set with MotAlinker/CTD is “binds”.
